Laboratory results: article PMC6989145

Key:
[1] = biological target: murine perforin-2 (mPFN2) ectodomain (mouse) (UniProt A1L314); test: cryo-EM structure; pore: pre-pore sample lowered to pH 3.6 to 4.0 with 0.056% Cymal-6, room temperature, 30 min; C16 symmetry
[2] = biological target: murine perforin-2 (mPFN2) ectodomain (mouse) (UniProt A1L314); test: cryo-EM structure; pre-pore oligomers formed in solution: 0.5 mg/ml in 50 mM citric acid buffer pH 5.5, 150 mM NaCl, 37°C overnight; purified by SEC (Superose 6); 0.01% Tween 20 added; C16 symmetry
[3] = biological target: murine perforin-2 (mPFN2) ectodomain (mouse) (UniProt A1L314); test: high-speed atomic force microscopy; PFN2 monomers (0.043 mg/ml) incubated 5 min on a mica-supported E. coli lipid bilayer; 20 mM Hepes-NaOH pH 7.5, 200 mM NaCl, 2 mM CaCl2; subunit association and dissociation at incomplete rings, frames of 500 ms
[4] = biological target: murine perforin-2 (mPFN2) ectodomain (mouse) (UniProt A1L314); test: high-speed atomic force microscopy; PFN2 monomers (0.043 mg/ml) incubated 5 min directly on freshly cleaved mica; 20 mM Hepes-NaOH pH 7.5, 200 mM NaCl, 2 mM CaCl2

stoichiometry N [1]: 16
stoichiometry N [2]: 16 subunits
subunit association rate (subunits·s^−1) [3]: 2.4
stoichiometry N [4]: 1 to 16 subunits
Substance: murine perforin-2 (mPFN2) ectodomain (from UniProt A1L314 20-652) (domain or fragment)
